Data as given in IntAct's records for PubMed 20142513.

B1: Protein ERGIC-53 (Homo sapiens), P49257 (parent)
chain: MAGSRQRGLRARVRPLFCALLLSLGRFVRGDGVGGDPAVALPHRRFEYKYSFKGPHLVQSDGTVPFWAHAGNAIPSSDQIRVAPSLKSQRGSVWTKTKAAFENWEVEVTFRVTGRGRIGADGLAIWYAENQGLEGPVFGSADLWNGVGIFFDSFDNDGKKNNPAIVIIGNNGQIHYDHQNDGASQALASCQRDFRNKPYPVRAKITYYQNTLTVMINNGFTPDKNDYEFCAKVENMIIPAQGHFGISAATGGLADDHDVLSFLTFQLTEPGKEPPTPDKEISEKEKEKYQEEFEHFQQELDKKKEEFQKGHPDLQGQPAEEIFESVGDRELRQVFEGQNRIHLEIKQLNRQLDMILDEQRRYVSSLTEEISKRGAGMPGQHGQITQQELDTVVKTQHEILRQVNEMKNSMSETVRLVSGMQHPGSAGGVYETTQHFIDIKEHLHIVKRDIDNLVQRNMPSNEKPKCPELPPFPSCLSTVHFIIFVVVQTVLFIGYIMYRSQQEAAAKKFF
partner: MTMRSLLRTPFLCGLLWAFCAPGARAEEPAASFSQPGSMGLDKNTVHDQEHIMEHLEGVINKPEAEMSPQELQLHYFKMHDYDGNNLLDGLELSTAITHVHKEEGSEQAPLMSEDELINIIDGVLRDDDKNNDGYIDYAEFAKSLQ
B2: Multiple coagulation factor deficiency protein 2 (Homo sapiens), Q8NI22 (parent)
chain: B1 partner
partner: B1 chain

Variants of: B1
Conditions: with mcfd2_human MCFD2, Q8NI22

Variant	effect of a mutation on the interaction
R45A	decreasing interaction

Variants of: B2
Conditions: with lman1_human LMAN1, P49257

Variant	effect of a mutation on the interaction
D89A	disrupting interaction

Variants of: B2
Conditions: with lman1_human LMAN1, P49257
Remark: another data set of the same source

Variant	effect of a mutation on the interaction
D122V	disrupting interaction

Variants of: B2
Conditions: with lman1_human LMAN1, P49257
Remark: another data set of the same source

Variant	effect of a mutation on the interaction
D122V	decreasing interaction
